How the values were obtained:
[1] = molecular target: cyclohexylamine oxidase from Acinetobacter sp. YT-02 (Acinetobacter sp. YT-02); test: SEC; gel filtration on Superose 6 Increase 10/300GL; 10 mM phosphate buffer, pH 7.4, 140 mM NaCl; calibrated with apoferritin (443 kDa), alcohol dehydrogenase (150 kDa), bovine albumin (66 kDa), carbonic anhydrase (29 kDa)
[2] = substrate: NC1CCCCC1; test: purified protein; format: biochemical, Acinetobacter sp. YT-02; details: 50 °C, pH 7.0 sodium phosphate

| Molecule | stoichiometry N [1] | Km [2] | Vmax [2] | kcat [2] | kcat/Km [2] |
| --- | --- | --- | --- | --- | --- |
| cyclohexylamine oxidase from Acinetobacter sp. YT-02 (enzyme) | 2 | – | – | – | – |
| CHAOYT–02 (Acinetobacter sp. YT-02) (protein, full-length ORF of 460 residues, no signal peptide; pET-28b 6xHis tag and vector residues kept (53,534 Da with tag); E. coli BL21 (DE3); dimer about 91 kDa; FAD enzyme) MSVNDNRESASYDADVIVVGAGPSGSYAAKLLHDRGISVKLVEAKDRVGGRTWSSKTEAQGGPIDFGGQWIGETHVLLPELGEELGLETVSSIKPGNDIFVFNGQVTVGEEDQAPASASWTAELTRSFELLDEAGARLGWEAPWASPAVEALDGMTVAQWLDENVSSDEVRMIHEVMVNILNGANTTEVSMAYWAYFVHQGEGIESLIGTRSGAQIAWFVGGMGQVTELIADRLGDNLHLNWPVTSIEQQDSGVVVSSGDRRLTAKYVILATPPSDASRMIFDQPLPAKRAQLQARAPMGRLAKIQVRYRDAFWQEENLSGAAFVCGDLAFWVFDGSKPSDSLATIVGFIGGKHLDLWHSFTPEEREARFIDMLVTNIGEKARDTVYYHETDWTEQPWTGGAPVTFMPTGLLSSSGSALRGSAGRIHFAGTEAAPMWSGYIEGALRAGKIAATDIIARLG | – | 250 ± 20 µM | 4300 µM/min | 523 ± 10 s⁻¹ | 2.08e+06 M⁻¹ s⁻¹ |

From article PMC6262902, “Characterization of a New Cyclohexylamine Oxidase From Acinetobacter sp. YT-02” (Frontiers in Microbiology, 2018)
